Assay results taken from patent publication US6949522B2, “β-2′- or 3′-halonucleosides” (Pharmasset, Inc., priority 2001, dated 2005).

Substrate: Nc1ncnc2c1ncn2[C@@H]1O[C@H](CO)[C@@H](O)[C@H]1O
Test: purified protein, by the assay type
Conditions: other: 25° C., phosphate buffer pH 7.4, substrate of ADA
Method: Assays were performed at 25° C. in phosphate buffer solution (pH 7.4) with substrate concentrations in the range of 15-100 μM and with 0.15 unit of adenosine deaminase (EC.3.5.4.4. from calf intestinal mucosa). The assays were monitored with a UV spectrometer at 265 nm. […] The concentration (ct) of each substrate at a certain time (t) was calculated from the absorbance (At) at that time (t), where it was assumed that the total change of absorbance (A0−A∞) was directly related to the disappearance of the substrate.^35 Initial hydrolysis rates for each substrate concentration were measured manually through graphical curve fitting of the concentration versus time data for reaction of each substrate. From Lineweaver-Burke plot of these initial rates, Vmax (maximum velocity) and KM (Michaelis constant) were obtained for each substrate and kcat was also calculated with 0.15 unit of the enzyme (M.W. 33,000) in 2 mL of buffer solution.

B1: adenosine deaminase (EC.3.5.4.4. from calf intestinal mucosa) (Bos taurus) (protein)
chain: MAQTPAFNKPKVELHVHLDGAIKPETILYYGRKRGIALPADTPEELQNIIGMDKPLSLPEFLAKFDYYMPAIAGCREAVKRIAYEFVEMKAKDGVVYVEVRYSPHLLANSKVEPIPWNQAEGDLTPDEVVSLVNQGLQEGERDFGVKVRSILCCMRHQPSWSSEVVELCKKYREQTVVAIDLAGDETIEGSSLFPGHVKAYAEAVKSGVHRTVHAGEVGSANVVKEAVDTLKTERLGHGYHTLEDATLYNRLRQENMHFEVCPWSSYLTGAWKPDTEHPVVRFKNDQVNYSLNTDDPLIFKSTLDTDYQMTKNEMGFTEEEFKRLNINAAKSSFLPEDEKKELLDLLYKAYGMPSPASAEQCL
Km: 24.5 µM | kcat: 76.4 s⁻¹ | kcat/Km: 3.1e+06 M⁻¹ s⁻¹
